This test has as its target eEF-2 (Homo sapiens, UniProt P13639). Put plainly: kinase inhibition assay.

B1: eEF-2K 562-725 (protein)
chain: GELEAIVGLGLMYSQLPHHILADVSLKETEENKTKGFDYLLKAAEAGDRQSMILVARAFDSGQNLSPDRCQDWLEALHWYNTALEMTDCDEGGEYDGMQDEPRYMMLAREAEMLFTGGYGLEKDPQRSGDLYTQAAEAAMEAMKGRLANQYYQKAEEAWAQMEE
Broadly, the Ki is the equilibrium dissociation constant of an inhibitor or competing ligand from its target. Lower therefore signals higher affinity. In turn, B1 displayed an inhibition constant (Ki) of roughly 9 µM.

The values above are taken from PMC6599559 (2019).
